Data on 13 molecules can be found in patent publication US20260167721A1 (ABLEXIS, published 2026).

Assay [1] addresses T1, recombinant human CD3 epsilon/delta heterodimer (human, UniProt P07766 23-126; P04234 22-105).
T1 construct: Recombinant protein in solution (200-50 nM) in the Octet assay; also called hCD3 E/D; human CD3E/D
As to the kind of experiment: Octet BLI, mAb on FAB2G sensor, hCD3 E/D 200-50 nM; R^2 0.99.

Assay [2] concerns the target T2, recombinant human CD3 epsilon/gamma heterodimer (human, UniProt P07766 23-126; P09693 23-116).
T2 construct: Recombinant protein in solution (200-50 nM) in the Octet assay; also called hCD3 E/G
Nature of the assay: Octet BLI, mAb on FAB2G sensor, hCD3 E/G 200-50 nM; R^2 0.99.

Another assay deals with recombinant CD3 proteins. Nature of the assay: Octet (BLI), bispecific antibody against recombinant CD3 proteins.

T2 sequence (P07766 23-126, chain 1 of 2): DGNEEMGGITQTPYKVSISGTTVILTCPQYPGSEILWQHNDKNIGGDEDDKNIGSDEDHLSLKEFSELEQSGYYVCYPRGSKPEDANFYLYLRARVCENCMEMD
T2 sequence (P09693 23-116, chain 2 of 2): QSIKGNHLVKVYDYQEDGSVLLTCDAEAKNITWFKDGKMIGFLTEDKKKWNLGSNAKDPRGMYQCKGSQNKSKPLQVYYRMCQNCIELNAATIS
T1 sequence (P07766 23-126, stated change not applied, chain 1 of 2): as the sequence (P07766 23-126, chain 1 of 2) above
T1 sequence (P04234 22-105, stated change not applied, chain 2 of 2): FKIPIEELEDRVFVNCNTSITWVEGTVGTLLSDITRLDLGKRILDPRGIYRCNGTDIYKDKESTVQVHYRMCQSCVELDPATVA

B1: ABL-CD3-56 (antibody, V domains shown)
VH: EVQLVESGGGLVKPGGSLRLSCVASGFTFSRYSMNWVRQAPGKGLEWVSSISSSSRYTYYADSLKGRFIMSRDNAKNSLFLQMNSLRAEDTAVYYCARNLYNALDYWGQGTLVTVSS
VL: FMLTQPHSVSESPGKTVTISCTRSSGSIASNYVQWYQQRPGSSPTTVIYEDNQRPSGVPDRFSGSIDSSSNSASLTISGLQTEDEADYYCQSYDSSNRVFGGGTKLTVL
notes: Chimeric hybridoma mAb: human V, CH1, upper hinge; mouse middle hinge, CH2, CH3
As for B1, in assay [1], the Kd turned out to be 3.96 nM, the Response amounted to 1.24, the koff worked out at 0.000522 s⁻¹ and the on-rate constant (kon) was 132000 M⁻¹ s⁻¹. In assay [2], the equilibrium dissociation constant (Kd) was 0.94 nM, the Response stood at 1.3, the off-rate constant (koff) was determined as 0.000102 s⁻¹ and the on-rate constant (kon) is 109000 M⁻¹ s⁻¹.

B2: ABL-CD3-55 (antibody, V domains shown)
VH: EVQLVESGGGLVKPGGSLRLSCAASGFTFSIYSMNWVRQAPGKGLEWVSSISSGSSYIYYADSVKGRFTISRDNAKSSLFLQMNSLRAEDTAVYYCAREKRELLFDYWGQGTLVTVSS
VL: NFMLTQPHSVSESPGKTVTISCTRSSGSIASNYVQWYQQRPGSSPTTVIYEDNQRPSGVPDRFSGSIDRSSNSASLTISGLKTEDEADYYCQSYDSSNRVFGGGTKLTVL
notes: as for B1
With B2, in assay [1], the Kd turned out to be 183 nM, the Response stood at 0.13, the off-rate (koff) was found to be 0.069 s⁻¹ and the association rate constant (kon) was 376000 M⁻¹ s⁻¹. In addition, in assay [2], the Kd turned out to be 141 nM, the Response stood at 0.08, the koff came out at 0.0894 s⁻¹ and the on-rate constant (kon) was determined as 636000 M⁻¹ s⁻¹.

B3: CD3 × CD33-BspAb36 (bispecific antibody)
chain 1: not shown
chain 2: EVQLVQSGAEVKKPGSSVKVSCKASGYTITDSNIHWVRQAPGQSLEWIGYIYPYNGGTDYNQKFKNRATLTVDNPTNTAYMELSSLRSEDTAFYYCVNGNPWLAYWGQGTLVTVSSASTKGPSVFPLAPSSKSTSGGTAALGCLVKDYFPEPVTVSWNSGALTSGVHTFPAVLQSSGLYSLSSVVTVPSSSLGTQTYICNVNHKPSNTKVDKRVEPKSCDKTHTCPPCPAPEFEGGPSVFLFPPKPKDTLMISRTPEVTCVVVDVSHEDPEVKFNWYVDGVEVHNAKTKPREEQYNSTYRVVSVLTVLHQDWLNGKEYKCKVSNKALPASIEKTISKAKGQPREPQVCTLPPSREEMTKNQVSLSCAVKGFYPSDIAVEWESNGQPENNYKTTPPVLDSDGSFFLVSKLTVDKSRWQQGNVFSCSVMHEALHNRFTQKSLSLSPGK
chain 3: DIQLTQSPSTLSASVGDRVTITCRASESLDNYGIRFLTWFQQKPGKAPKLLMYAASNQGSGVPSRFSGSGSGTEFTLTISSLQPDDFATYYCQQTKEVPWSFGQGTKVEVKRTVAAPSVFIFPPSDEQLKSGTASVVCLLNNFYPREAKVQWKVDNALQSGNSQESVTEQDSKDSTYSLSSTLTLSKADYEKHKVYACEVTHQGLSSPVTKSFNRGEC
Consider B3, for which, in the assay with recombinant CD3 proteins, the dissociation constant (Kd) came out at 205 nM, the Response amounted to 0.42, the koff was 0.00334 s⁻¹ and the kon is 16300 M⁻¹ s⁻¹.

B4: CD3 × CD33-BspAb42 (bispecific antibody)
chain 1: EVQLVESGGGLVKPGGSLRLSCAASGFTLSSYSMNWVRQAPGKCLEWVSSISRSGSYIYYADSVKGRFTISRDNAKNSLYLQMNSLRAEDTAVYYCAREKWELLYFDYWGQGTLVTVSSGGGGSGGGGSGGGGSGGGGSNFMLTQPHSVSESPGKTVTISCTRSSGSIASNYVQWYQQRPGSSPTTVIYEDNQRPSGVPDRFSGSIDSSSNSASLTISGLKTEDEADYYCQSYDSSNRVFGCGTKLTVLDKTHTCPPCPAPEFEGGPSVFLFPPKPKDTLMISRTPEVTCVVVDVSHEDPEVKFNWYVDGVEVHNAKTKPREEQYNSTYRVVSVLTVLHQDWLNGKEYKCKVSNKALPASIEKTISKAKGQPREPQVYTLPPCREEMTKNQVSLWCLVKGFYPSDIAVEWESNGQPENNYKTTPPVLDSDGSFFLYSKLTVDKSRWQQGNVFSCSVMHEALHNHYTQKSLSLSPGK
chain 2: B3 chain 2
chain 3: B3 chain 3
Take B4: in the assay with recombinant CD3 proteins, the dissociation constant Kd turned out to be 133 nM, the Response is 0.51, the off-rate (koff) is 0.0186 s⁻¹ and the kon came to 139000 M⁻¹ s⁻¹.

B5: CD3 × CD33-BspAb37 (bispecific antibody)
chain 1: not shown
chain 2: B3 chain 2
chain 3: B3 chain 3
Take B5: in the assay with recombinant CD3 proteins, the Kd was determined as 213 nM, the Response worked out at 0.34, the off-rate constant (koff) was found to be 0.00336 s⁻¹ and the kon came to 15800 M⁻¹ s⁻¹.

B6: CD3 × CD33-BspAb38 (bispecific antibody)
chain 1: not shown
chain 2: B3 chain 2
chain 3: B3 chain 3
Turning to B6, in the assay with recombinant CD3 proteins, the equilibrium dissociation constant (Kd) was 81 nM, the Response stood at 0.28, the koff was 0.0203 s⁻¹ and the association rate constant (kon) turned out to be 250000 M⁻¹ s⁻¹.

B7: CD3 × CD33-BspAb61 (bispecific antibody)
chain 1: NFMLTQPHSVSESPGKTVTISCTRSSGSIASNYVQWYQQRPGSSPTTVIYEDNQRPSGVPDRFSGSIDSSSNSASLTISGLKTEDEADYYCQSFDNSNRVFGCGTKLTVLGGGGSGGGGSGGGGSGGGGSEVQLVESGGGLVKPGGSLRLSCAASGFTFSRYSMNWVRQAPGKCLKWVSSISSSGSYKYYADSVKGRFTISRDNAKNSLYLQMNSLRAEDTAVYYCAREPPTLGMDYWGQGTLVTVSSDKTHTCPPCPAPEFEGGPSVFLFPPKPKDTLMISRTPEVTCVVVDVSHEDPEVKFNWYVDGVEVHNAKTKPREEQYNSTYRVVSVLTVLHQDWLNGKEYKCKVSNKALPASIEKTISKAKGQPREPQVYTLPPCREEMTKNQVSLWCLVKGFYPSDIAVEWESNGQPENNYKTTPPVLDSDGSFFLYSKLTVDKSRWQQGNVFSCSVMHEALHNHYTQKSLSLSPGK
chain 2: B3 chain 2
chain 3: B3 chain 3
As to B7, in the assay with recombinant CD3 proteins, the equilibrium dissociation constant (Kd) turned out to be 7.62 nM, the Response was 0.74, the koff is 0.00187 s⁻¹ and the on-rate constant (kon) worked out at 245000 M⁻¹ s⁻¹.

B8: CD3 × CD33-BspAb51 (bispecific antibody)
chain 1: not shown
chain 2: B3 chain 2
chain 3: B3 chain 3
For B8, in the assay with recombinant CD3 proteins, the Kd was 74 nM, the Response came to 0.26, the koff is 0.00232 s⁻¹ and the on-rate (kon) came out at 31400 M⁻¹ s⁻¹.

B9: CD3 × CD33-BspAb39 (bispecific antibody)
chain 1: not shown
chain 2: B3 chain 2
chain 3: B3 chain 3
In the case of B9, in the assay with recombinant CD3 proteins, the Kd worked out at 299 nM, the Response worked out at 0.1, the koff stood at 0.117 s⁻¹ and the kon worked out at 391000 M⁻¹ s⁻¹.

B10: CD3 × CD33-BspAb52 (bispecific antibody)
chain 1: not shown
chain 2: B3 chain 2
chain 3: B3 chain 3
With B10, in the assay with recombinant CD3 proteins, the equilibrium dissociation constant (Kd) amounted to 19.5 nM, the Response was found to be 0.07, the dissociation rate constant (koff) turned out to be 0.00751 s⁻¹ and the kon came to 386000 M⁻¹ s⁻¹.

B11: CD3 × CD33-BspAb45 (bispecific antibody)
chain 1: EVQLVESGGGLVQPGGSLRLSCAASGFTFSRYSMNWVRQAPGKCLEWVSYISSSSSSIYYADSVKGRFTISRDNAKNSLYLQMNSLRDEDTAVYYCARDRRATLDYWGQGTLVTVSSGGGGSGGGGSGGGGSGGGGSNFMLTQPHSVSESPGKTVTISCTRSSGSIASNYVQWYQQRPGSSPTTVIYEDNQRPSGVPDRFSGSIDSSSNSASLTISGLKTEDEADYYCQSYDSSNHVFGCGTKLTVLDKTHTCPPCPAPEFEGGPSVFLFPPKPKDTLMISRTPEVTCVVVDVSHEDPEVKFNWYVDGVEVHNAKTKPREEQYNSTYRVVSVLTVLHQDWLNGKEYKCKVSNKALPASIEKTISKAKGQPREPQVYTLPPCREEMTKNQVSLWCLVKGFYPSDIAVEWESNGQPENNYKTTPPVLDSDGSFFLYSKLTVDKSRWQQGNVFSCSVMHEALHNHYTQKSLSLSPGK
chain 2: B3 chain 2
chain 3: B3 chain 3
For the molecule B11, in the assay with recombinant CD3 proteins, the Kd is 177 nM, the Response worked out at 0.58, the koff was found to be 0.0529 s⁻¹ and the kon turned out to be 299000 M⁻¹ s⁻¹.

B12: CD3 × CD33-BspAb50 (bispecific antibody)
chain 1: not shown
chain 2: B3 chain 2
chain 3: B3 chain 3
For the molecule B12, in the assay with recombinant CD3 proteins, the Kd was 125 nM, the Response is 0.33, the koff was determined as 0.00262 s⁻¹ and the kon is 21000 M⁻¹ s⁻¹.

B13: CD3 × CD33-BspAb62 (bispecific antibody)
chain 1: NFMLTQPHSVSESPGKTVTISCTRSSGSIASNYVQWYQQRPGSSPTTVIYEDNQRPSGVPDRFSGSIDSSSNSASLTISGLKTEDEADYYCQSYDSSNHVFGCGTKLTVLGGGGSGGGGSGGGGSGGGGSEVQLVESGGGLVQPGGSLRLSCAASGFTFSRYSMNWVRQAPGKCLEWVSYISSSSSSIYYADSVKGRFTISRDNAKNSLYLQMNSLRDEDTAVYYCARDRRATLDYWGQGTLVTVSSDKTHTCPPCPAPEFEGGPSVFLFPPKPKDTLMISRTPEVTCVVVDVSHEDPEVKFNWYVDGVEVHNAKTKPREEQYNSTYRVVSVLTVLHQDWLNGKEYKCKVSNKALPASIEKTISKAKGQPREPQVYTLPPCREEMTKNQVSLWCLVKGFYPSDIAVEWESNGQPENNYKTTPPVLDSDGSFFLYSKLTVDKSRWQQGNVFSCSVMHEALHNHYTQKSLSLSPGK
chain 2: B3 chain 2
chain 3: B3 chain 3
In the case of B13, in the assay with recombinant CD3 proteins, the dissociation constant (Kd) is 85.9 nM, the Response amounted to 0.25, the off-rate constant (koff) amounted to 0.0474 s⁻¹ and the kon was determined as 552000 M⁻¹ s⁻¹.
